This note sets out measurements from US20190367619A1 (ARGENX, published 2019).

Where two headings read alike, the source gives them in different places.

The target of experiment [1] is TEV-cleaved wild-type recombinant human galectin-10 (soluble, in Fab complexes, or as recombinant galectin-10 crystals / CLCs) (human) (UniProt Q05315). Briefly: cell-based or functional assay.
The target of experiment [2] is T1, cynomolgus galectin-10-His, YRT isoform (cynomolgus).
T1 sequence: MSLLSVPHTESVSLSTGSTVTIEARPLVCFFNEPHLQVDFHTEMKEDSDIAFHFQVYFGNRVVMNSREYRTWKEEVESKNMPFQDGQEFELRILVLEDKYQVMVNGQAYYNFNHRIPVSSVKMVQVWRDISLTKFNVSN
Briefly: ELISA, coated antigen 0.5 ug/mL.

Experiment [3] has as its target T2, human galectin-10-His (recombinant human galectin-10 with TEV-cleavable N-terminal His-tag) (human).
T2 construct: SEC-MALLS: dimer in solution; also called Gal10-His; humanGal10-His
T2 chain: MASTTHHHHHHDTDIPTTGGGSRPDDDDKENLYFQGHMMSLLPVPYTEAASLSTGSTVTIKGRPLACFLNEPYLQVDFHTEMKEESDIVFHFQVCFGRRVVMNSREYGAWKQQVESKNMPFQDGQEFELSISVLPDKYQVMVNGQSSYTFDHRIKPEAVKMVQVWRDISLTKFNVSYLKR
Put plainly: BLI tandem on galectin-10-His; isotype control as saturating antibody (10 ug/mL). As for the experimental part:
(§1) In order to identify the galectin-10 binding sites of the different clones, an epitope mapping method (TANDEM), using the BLI technology, was established. Briefly, the galectin-10-His was captured on anti-HIS 1K sensor tips, before incubation with an excess of one antibody (called the “saturating” antibody) then directly transferred to a solution containing the “competitor” antibody at a suboptimal concentration. If the “saturating” and the competitor antibody bind to the same binding sites, no binding of “competitor” will be detected (expressed in nm shift).

Experiment [4] deals with T2, human galectin-10-His (recombinant …). Put plainly: BLI tandem on galectin-10-His; competitor: saturating 1D11 mIgG1 (10 ug/mL). As for the experimental part:
as §1

Experiment [5] has the same target. Put plainly: BLI tandem on galectin-10-His; competitor: saturating 6E10 mIgG1 (10 ug/mL). As for the experimental part:
as §1

For experiment [6] the target is unchanged. Briefly: BLI tandem on galectin-10-His; competitor: saturating 6A05 mIgG1 (10 ug/mL). As for the experimental part: as §1
The target in experiment [7] is T3, TEV-cleaved wild-type recombinant human galectin-10 (soluble, in Fab complexes, or as recombinant galectin-10 … (human, UniProt Q05315 1-142)).
T3 sequence: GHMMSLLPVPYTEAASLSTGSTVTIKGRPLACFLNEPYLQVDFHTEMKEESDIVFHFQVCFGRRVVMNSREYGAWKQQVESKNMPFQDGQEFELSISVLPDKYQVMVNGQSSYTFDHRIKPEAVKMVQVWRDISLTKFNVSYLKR
Briefly: cell-based or functional assay.

The target of experiment [8] is T2, human galectin-10-His (recombinant …). Put plainly: BLI tandem on galectin-10-His; competitor: saturating 1C09 mIgG1 (10 ug/mL). As for the experimental part:
as §1

The target is the same in experiment [9]. Put plainly: ELISA binding (summary table), mouse IgG1.
Experiment [10] has the same target. Briefly: SPR Biacore T3000, mouse IgG1 captured by anti-mouse Fc, galectin-10-His as analyte. As for the experimental part:
(§2) The binding capacity of the mouse IgG1 antibodies to galectin-10 was analyzed on Biacore T3000. For this purpose, a capture approach was set up. A CM5 Chip was coated with polyclonal anti-mouse Fc at 8000 RU, then a fixed concentration of the mouse IgG1 antibody panel (1.5 μg/mL), diluted in HBS-EP pH7.4, was captured to reach a binding signal around 150 RU. Finally, a serial dilution of galectin-10-His (serial dilution, 1 over 2 from 5 μg/mL) diluted in HBS-EP pH7.4 was injected. Raw data were analyzed via BIA evaluation software with a blank subtraction (4-3). The kd/KD and Rmax of each mAb to galectin-10-His was determined using the Fit Kinetics simultaneous ka/kd/Binding with mass transfer/Local Rmax on BIA evaluation software.
On the technique in general: SPR reads the build-up and loss of mass on a sensor chip optically.

Experiment [11] has the same target. Put plainly: BLI tandem on galectin-10-His; competitor: saturating 2C07 mIgG1 (10 ug/mL). As to the method: as §1
The target is the same in experiment [12]. Briefly: BLI tandem on galectin-10-His; competitor: saturating 2F09 mIgG1 (10 ug/mL). As for the experimental part: as §1
For experiment [13], the target named is T3, TEV-cleaved wild-type recombinant human …. Put plainly: cell-based or functional assay. The source holds these as a separate data set.
Experiment [14] deals with T2, human galectin-10-His (recombinant …). Put plainly: BLI tandem on galectin-10-His; competitor: saturating 6A08 mIgG1 (10 ug/mL). As to the method:
as §1

Experiment [15] shares this target. Briefly: Biacore capture approach (summary table), mouse IgG1. As to the method: as §2
The target in experiment [16] is T3, TEV-cleaved wild-type recombinant human …. Briefly: cell-based or functional assay. This is another data set of the same source.
Experiment [17] deals with T2, human galectin-10-His (recombinant …). Briefly: BLI tandem on galectin-10-His; competitor: saturating 4E08 mIgG1 (10 ug/mL). As for the experimental part:
as §1

The target is the same in experiment [18]. Put plainly: BLI tandem on galectin-10-His; competitor: saturating 6B06 mIgG1 (10 ug/mL). As for the experimental part:
as §1

For experiment [19] the target is unchanged. Briefly: ELISA, mouse IgG1 on coated galectin-10-His (0.2 ug/mL). As for the experimental part:
In a similar setup to that used during the characterization of the scFv-human Fc molecules, the relative binding affinities of the 10 mouse IgG1 antibodies were analyzed by ELISA. A Maxisorp plate was coated overnight with 0.2 μg/mL of galectin-10-His. Then a serial dilution of each clone (from 100 nM, dilution 1/4, 12 points of dilutions) was incubated on coated galectin-10. After several washing steps, detection of the bound mouse IgG1 was carried out with an anti-mouse Fc-HRP antibody. Absorbance was measured at 450 nm (reference at 620 nm) with Tecan instrument. A mouse IgG1 isotype control was used as negative control. A polyclonal anti-galectin-10 antibody was used as positive control for the coating of galectin-10. The raw data (OD values) were plotted on GraphPad Prism 7.01. The EC50 values for each antibody, calculated with a non-linear regression (log(agonist) vs. response Variable slope (four parameters)), are reported in Table 7 below.
For orientation: In an ELISA, binding on a coated surface is turned into a signal by an enzyme label.

Experiment [20] shares this target. Briefly: BLI tandem on galectin-10-His; competitor: saturating 6F06 mIgG1 (10 ug/mL). As for the experimental part:
as §1

In the case of “mouse IgG1 isotype control (irrelevant mouse IgG1) (antibody)”, in experiment [1], the CLC formation (crystallization robot assay) came to 100%.

B1: 1D11 mouse IgG1 (antibody, V domains shown)
VH: QVQLVESGGGLVQPGGSLRLSCAASGFTFDDYAMSWVRQAPGKGLEWVSGISWNGGSTYYAESMKGRFTISRDNAKNTLYLQMNSLKSEDTAVYYCAKDRNLGYRLGYPYDYWGQGTQVTVSS
VL: QSVLTQPPSVSGSPGETVTISCAGTSSDVGYGNYVSWYQQLPGMAPRLLIYEVNKRASGITDRFSGSKSGNTASLTISGLQSEDEGDYYCASYRSSNNAVFGGGTHLTVL
As for B1, the OD values in [2] stood at 0.03 OD.

B2: 4E08 mouse IgG1 (antibody, V domains shown)
VH: QVQRQESGPGLVKPSQTLSLTCTVSGGSITTSYYAWSWIRQPPGKGLEWMGVIASDGSTYYSPSLKSRTSISRDTSKNQFSLQLSSVTPEDTAVYYCALYIRGSSWSGWSAYDYWGQGTQVTVSS
VL: QPVLNQPSAVSVSLGQTARITCQGGNFGYYYGSWYQQKPGQAPVLVIYKDSERPSGIPERFSGSSSGGTATLTISRAQAEDEADYYCQSADSSDNPVFGGGTHLTVL
notes: VH on mouse IgG1 heavy chain constant domains (CH1-CH2-CH3), VL on mouse lambda light chain constant domain; also called 4E8; 4E08 mIgG1
With B2, the “binding signal (nm)” value in experiment [3] is 0.97 nm; in experiment [4], 0.03 nm; in [5] it was -0.05 nm; in [6] it was 0.03 nm; in experiment [8] it was -0.02 nm; in [11], 0 nm. Also, the “binding signal (nm)” value was 0.01 nm in [12]; -0.03 nm in experiment [14]; -0.08 nm in [17]; 0 nm in experiment [18]; 0.01 nm in [20]. Moreover, the “100% Inhibition of CLC formation (Conc uM)” value in experiment [7] was found to be 1.11 µM. In addition, the “100% Solubilization of CLC (Conc uM)” value in experiment [7] and in [16] was over 10 µM in each case. Also, the EC50 in [9] and in experiment [19] was 3.22 nM each time. Further, the Kd in experiment [10] and in experiment [15] was 0.8 nM in each case. Further, the off-rate constant (koff) in experiment [10] and in experiment [15] was 0.00085 s⁻¹ in each case. Besides, the “dissolution of in vitro grown Gal10 crystals (spinning disk confocal microscopy)” value in [13] is at most 90 min. Further, in [19], the Bmax came to 2.06 OD.

B3: 1C09 mouse IgG1 (antibody, V domains shown)
VH: QVQLVESGPGLVKPSQTLSLTCTVSGGSITTNSYYWSWIRQPPGKGLEWMGAIAYSGSTYYSPSLKSRTSISRDTSKNQFTLHLSSVTPEDTAVYYCARRPNWYRALDAWGQGTLVTVSS
VL: NFMLTQPSAVSVSLGQTARITCQGANLGRYYGIWYQQKPGQAPVQVIYGDSNRPSGIPERFSGSSSGGTATLTISGAQAEDEADYYCQSYESSTSPVFGGGTHLTVL
notes: VH on mouse IgG1 heavy chain constant domains (CH1-CH2-CH3), VL on mouse lambda light chain constant domain; also called 1C09 mIgG1
As to B3, the “binding signal (nm)” value in experiment [3] stood at 1.21 nm; in [4], 0.1 nm; in experiment [5] it was 0.02 nm; in [6] it was 0.09 nm; in experiment [8], 0.03 nm; in experiment [11], 0.03 nm. Further, the “binding signal (nm)” value in experiment [12] was found to be 0.02 nm; in experiment [14], 0.04 nm; in experiment [17] it was 0.08 nm; in [18], 0.02 nm; in experiment [20], 0.04 nm. Also, the “100% Inhibition of CLC formation (Conc uM)” value in experiment [7] was 0.82 µM. Besides, the “100% Solubilization of CLC (Conc uM)” value in experiment [7] and in [16] was 10.5 µM throughout. Moreover, the concentration for a half-maximal effect (EC50) in experiment [9] and in experiment [19] was 0.13 nM throughout. The Kd in experiment [10] and in experiment [15] was 0.5 nM each time. For the same molecule, the off-rate (koff) in experiment [10] and in experiment [15] was 0.00529 s⁻¹ throughout. Moreover, in experiment [13], the “dissolution of in vitro grown Gal10 crystals (spinning disk confocal microscopy)” value is at most 90 min. Also, in [19], the Bmax is 2.3 OD.
